Measured values from patent US9926214B2, “Use of peracetic acid/hydrogen peroxide and peroxide-reducing agents for treatment of drilling fluids, frac fluids, flowback water and disposal water” (Ecolab USA Inc., priority 2012, dated 2018).
Where two headings read alike, the source gives them in different places.

How the values were obtained:
[1] = type: physicochemical
Experimental: Field of use applications were analyzed to determine the amount of a peroxide-reducing enzyme necessary to obtain desired concentrations of both peracid and hydrogen peroxide in a treated water source. EnviroSan (POAA) peracid composition was added to water to reach the targeted POAA concentrations set forth in Table 18, and the concentration of both POAA and H2O2 were confirmed by iodometric titration. Then catalase (ES2000) was added to the solution, and the sample was stored under ambient conditions. The concentration of POAA and H2O2 were monitored by the iodometric conditions.

[2] = Example 21 hydrogen peroxide decomposition with sequenced POAA and hypochlorite in deionized and contaminated water; type: physicochemical; conditions: water not containing any biological contamination
Text: Additional evaluation of the process of using peroxide-reducing agents in sequence was further analyzed as shown in Table 32 using additional water samples, including deionized water (i.e. not contaminated), and the Control (as set forth above as a contaminated water source).
The peracetic acid and sodium hypochlorite are indistinguishable in titration, and are therefore presumed to consist of ½ of the titrateable material; however the focus of the evaluation was solely on the hydrogen peroxide decomposition.

[3] = Catalase 0.5 ppm, Time 1 hr, run starting at 14.6 ppm POAA
[4] = Catalase 1.0 ppm, Time 1 hr, run starting at 30.1 ppm POAA

Molecule | selectivity of H2O2 decomposition versus POAA stability [1] | H2O2(ppm) ([1]; Catalase 0.5 ppm, Time 0 hr, run starting at 14.6 ppm POAA) | H2O2(ppm) [1, 3] [ppm] | POAA (ppm) [1, 3] [ppm] | POAA (ppm) ([1]; Catalase 0.5 ppm, Time 1 hr, run starting at 31.1 ppm POAA) | H2O2(ppm) ([1]; Catalase 0.5 ppm, Time 2 hr, run starting at 14.6 ppm POAA) | H2O2(ppm) ([1]; Catalase 0.5 ppm, Time 2 hr, run starting at 31.1 ppm POAA) | H2O2(ppm) ([1]; Catalase 0.5 ppm, Time 3.6 hr, run starting at 14.6 ppm POAA) | H2O2(ppm) ([1]; Catalase 0.5 ppm, Time 3.6 hr, run starting at 31.1 ppm POAA) | H2O2(ppm) ([1]; Catalase 1.0 ppm, Time 1 hr, run starting at 14.8 ppm POAA) | H2O2(ppm) [1, 4] [ppm] | POAA (ppm) [1, 4] [ppm] | H2O2(ppm) ([1]; Catalase 1.0 ppm, Time 2 hr, run starting at 14.8 ppm POAA) | H2O2(ppm) ([1]; Catalase 1.0 ppm, Time 2 hr, run starting at 30.1 ppm POAA) | H2O2(ppm) ([1]; Catalase 1.0 ppm, Time 3.6 hr, run starting at 14.8 ppm POAA) | H2O2(ppm) ([1]; Catalase 1.0 ppm, Time 3.6 hr, run starting at 30.1 ppm POAA) | lowest catalase concentration treating pond water with POAA and H2O2 ([1]; within 4 hours, ambient conditions) [ppm] | impact on the decomposition of hydrogen peroxide [2]
catalase | selectively decomposes the H2O2 without having any negative impact on POAA stability | 12.0 | 7.5 | 15.0 | 32.0 | 6.5 | 7.8 | 1.8 | 3.4 | 3.7 | 7.6 | 31.0 | 1.1 | 2.3 | 0.4 | 0.0 | 0.5 | –
OCl [hypochlorite, sodium hypochlorite] | – | – | – | – | – | – | – | – | – | – | – | – | – | – | – | – | – | efficacious impact on the decomposition of hydrogen peroxide
